Experimental data reported in publication PMC2212392.
Where two headings read alike, the source gives them in different places.

What was measured:
Assay in all cases: SPR
[1] = target: soluble mCD2 comprising the extracellular region of mCD2 (mouse) (UniProt P08920)
[2] = target: soluble mCD2 comprising the extracellular region of mCD2 (mouse) (UniProt P08920); remark: listed apart in the source
[3] = target: soluble mCD2 comprising the extracellular region of mCD2 (mouse) (UniProt P08920); remark: listed apart in the source

Sequence of UniProt P08920 (P08920 23-203): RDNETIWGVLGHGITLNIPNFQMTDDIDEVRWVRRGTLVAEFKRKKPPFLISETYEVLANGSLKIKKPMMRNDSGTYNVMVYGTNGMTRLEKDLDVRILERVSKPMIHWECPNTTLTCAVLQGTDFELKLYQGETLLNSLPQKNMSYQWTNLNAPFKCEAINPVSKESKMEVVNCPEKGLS

Kd [1]: 90 µM
koff [1]: > 20 s⁻¹
koff [2]: 22 s⁻¹
Kd [3]: 49 µM
Substance: soluble mCD48 (purified monomeric mouse CD48 with a COOH-terminal His-tag) (from UniProt P18181 23-217) (domain or fragment)
